Results on 1 substance are retold here after paper PMC11437077.

The experiment addresses mouse PD-1 wild type expressed on CHO cells (mouse) (UniProt Q02242). The experiment in a line: biomembrane force probe (BFP), force-ramp spectroscopy (rupture force); PD-L1- or PD-L2-coated glass bead on a micropipette-aspirated RBC against a CHO cell expressing PD-1; continuous retraction until bond rupture; nominal loading rate 1000 pN/s; BFP spring constant 0.3 pN/nm.

Sequence of mouse PD-L2 with C-terminal biotin (Q9WUL5 20-221): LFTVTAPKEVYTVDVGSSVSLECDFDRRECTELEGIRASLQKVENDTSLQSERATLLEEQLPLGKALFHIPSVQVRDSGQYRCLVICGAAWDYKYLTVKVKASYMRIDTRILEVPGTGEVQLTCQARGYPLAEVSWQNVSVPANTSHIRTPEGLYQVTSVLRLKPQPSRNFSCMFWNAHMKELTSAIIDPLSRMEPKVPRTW
Sequence of mouse PD-1 wild type expressed on CHO cells (mouse) (Q02242 25-288): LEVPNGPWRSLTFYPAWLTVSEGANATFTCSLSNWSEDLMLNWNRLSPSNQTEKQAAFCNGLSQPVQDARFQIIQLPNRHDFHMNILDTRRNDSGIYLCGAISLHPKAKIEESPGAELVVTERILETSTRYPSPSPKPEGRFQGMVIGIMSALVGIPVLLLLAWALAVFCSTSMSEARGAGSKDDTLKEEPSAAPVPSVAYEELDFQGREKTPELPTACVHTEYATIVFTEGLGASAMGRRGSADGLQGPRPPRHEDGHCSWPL

As for “mouse PD-L2 with C-terminal biotin (from UniProt Q9WUL5 20-221) (ligand)”, the F1/2 (force at which 50% of the bonds rupture) stood at 12.1 pN.
